The assay deals with T1, FXIS557A catalytic domain (catalytically inactive catalytic domain of human FXI, Ile370 to Ala606 of SEQ ID … (human)).
T1 construct: The range 20-264 is worked out from 19 signal residues + 237 domain residues + 8 His; also called FXIS557A catalytic domain decoy; decoy
The assay can be described thus: SPR (Biacore T200), biotinylated FXIS557A catalytic domain captured on CAP chip, DEF Fab injected, 37 C, 1:1 Langmuir fit. As to the method:
Binding affinity was measured using a Biacore T200 Instrument (GE Healthcare). Recombinant FXIS557A catalytic domain was biotin labeled via primary amines and captured on a Biacore CAP chip (GE Healthcare). Experiments were performed at 37° C. using a 30 μ/min flow rate in 10 mM HEPES (pH 7.4), 150 mM NaCI and 0.005% v/v Surfactant P20 (HBSp) buffer (GE Healthcare). After each DEF Fab injection, the chip surface was regenerated with a solution of 6 M guanidine-HCl and 0.25 M NaOH, coated with the CAP reagent and new FXIS557A was captured. All data was analyzed using the Biacore T200 Evaluation software and background and buffer subtracted data fit to a 1:1 Langmuir binding model. Results were reported as the mean of two experiments.

B1: DEF Fab (Fab, V domains shown)
VH: EVQLVQSGAEVKKPGASVKVSCKASGYTFTGYYMHWVRQAPGQGLEWMGWIDPDEGDTNYAQKFQGRVTMTRDTSISTAYMELSRLRSDDTAVYYCARLASGFRDYWGQGTLVTVSS
VL: DIVMTKSPSSLSASVGDRVTITCRASQGIRNDLGWYQQKPGKAPKRLIYAASSLQSGVPSRFSGSGSGTEFTLTISSLQPEDFATYYCLQHDIYASTFGPGTKVDIKR
notes: Fab form of antibody DEF
With B1, the koff came to 0.000445 s⁻¹ and the kon was determined as 2.95e+06 M⁻¹ s⁻¹.

The record behind these values is patent US20180216094A1 (University of California, published 2018).
